Assay [1] concerns the target T1, SV40 Large T Antigen (T-Ag) (SV40, UniProt P03070 1-708).
T1 construct: also called SV40 T-Ag; recombinant SV40 T-Ag
Kind of assay: co-immunoprecipitation from metabolically labeled AT-2 cardiomyocytes.

Assay [2] has as its target T1, SV40 Large T Antigen (T-Ag). In words: immune precipitation / Western blot, NIH-3T3 cells co-transfected with CMV-p193myc and CMV-T-Ag. Background: A western blot detects proteins with antibodies after separation by electrophoresis.

This is an account of results in patent publication US20030073236A1 (published 2003).

B1: p193 (mouse p193, full length) (other)
chain: MVGELRYREFRVPLGPGLHAYPDELIRQRVGHNGHPEYQIRWLILRRGDDGDRDSTVDCKAEHILLWMSDDEIYANCHKMLGENGQVIAPSRESTEAGALDKSVLGEMETDVKSLIQRALRQLEECVGTVPPAPLLHTVHVLSAYASIEPLTGIFKDRRVVNLLMHMLSSPDYQIRWSAGRMIQALSSHDAGTRTQILLSLSQQEAIEKHLDFDSRCALLALFAQATLTEHPMSFEGVQLPQVPGRLLFSLVKRYLHVTFLLDRLNGDAGDQGAQNNFSPEELNVGRGRLELEFSMAMGTLISELVQAMRWDGASSRPESSSSSTFQPRPAQFRPYTQRFRRSRRFRPRASFASFNTYALYVRDTLRPGMRVRMLENYEEIAAGDEGQFRQSNDGVPPAQVLWDSTGHTYWVHWHMLEILGFEEDIEDVIDIEELQELGANGALSIVPPSQRWKPITQLFAEPYVVPEEEDREESENLTQAEWWELLFFIRQLSEAERLHIVDLLQDHLEEERVLDYDMLPELTVPVDLAQDLLLSLPQQLEDSALRDLFSCSVYRKYGPEVLVGHLSYPFVPGAQPNLFGANEESEAKDPPLQSASPALQRLVESLGPEGEVLVELEQALGSEAPQETEVKSCLLQLQEQPQPFLALMRSLDTSASNKTLHLTVLRILMQLVNFPEALLLPWHEAMDACVTCLRSPNTDREVLQELIFFLHRLTTTSRDYAVILNQHGARDAISKVLEKHRGKLELAQELRDMVSKCEKHAHLYRKLTTNILGGCIQMVLGQIEDHRRTHRPIQIPFFDVFLRYLCQGSSEEMKKNRYWEKVEVSSNPQRASRLTDRNPKTYWESSGRAGSHFITLHMRPGVIIRQLTLLVAGEDSSYMPAWVVVCGGNSIKSVNKELNTVNVMPSASRVTLLENLTRFWPIIQIRIKRCQQGGINTRIRGLEVLGPKPTFWPVFREQLCRHTRLFYMVRAQAWSQDIAEDRRSLLHLSSRLNGALRHEQNFAERFLPDMEAAQALSKTCWEALVSPLVQNITSPDEDSTSSLGWLLDQYLGCREAAYNPQSRAAAFSSRVRRLTHLLVHVEPREAAPPVVAIPRSKGRNRIHDWSYLITRGLPSSIMKNLTRCWRSVVEEQMNKFLSASWKDDDFVPRYCERYYVLQKSSSELFGPRAAFLLAMRNGCADAVRRLPFLRAAHVKQQFARHIDQRIQGSRMGGARGMEMLAQLQRCLESVLIFSPLEIATTFEHYYQHYMADRLLSVGSSWLEGAVLEQIGPCFPSRLPQQMLQSLNVSEELQRQFHVYQLQQLDQELLKLEDTEKKIQVAHEDSGREDKSKKEEAIGEAAAVAMAEEEDQGKKEEGEEEGEGEDEEEERYYKGTMPEVCVLVVTPRFWPVASVCQMLNPATCLPAYLRGTINHYTNFYSKSQSRSSLEKEPQRRLQWTWQGRAEVQFGGQILHVSTVQMWLLLHLNNQKEVSVESLQAISELPPDVLHRAIGPLTSSRGPLDLQEQKNVPGGVLKIRDDSEEPRPRRGNVWLIPPQTYLQAEAEEGRNMEKRRNLLNCLVVRILKAHGDEGLHVDRLVYLVLEAWEKGPCPARGLVSSLGRGATCRSSDVLSCILHLLVKGTLRRHDDRPQVLYYAVPVTVMEPHMESLNPGSAGPNPPLTFHTLQIRSRGVPYASCTDNHTFSTFR
modifications: 35S-methionine labelled in the immune precipitation experiments
notes: also called in vitro translated p193
As for B1, the binding result in assay [1] was “binds”.

B2: p193myc (p193 protein harboring a C-terminal myc epitope tag, from CMV-p193myc) (other, not shown: small tags and cut ends)
chain: B1 chain
notes: Expressed in NIH-3T3 cells co-transfected with CMV-T-Ag; also called CMV-p193myc product
Take B2: the binding result in assay [2] is given as “binds”.
